Experimental data from US20210196806A1.

Biological target: CD8+ T cells among expanded tumor infiltrating lymphocytes (TIL) of a lung adenocarcinoma patient (H)
Assay: flow cytometry, tetramer staining of expanded TILs of one patient

## KRAS-G12V/HLA-A*11:01 tetramer (from UniProt P61769 21-119) (peptide-MHC)
  percent of CD8+ T cells binding the tetramer: > 66%
